Earlier results in patent publication US11819552B2, “Antibody-drug conjugates targeting uPARAP” (RIGSHOSPITALET, priority 2016, dated 2023).

Experiments:
Settings in all cases: Jürgensen et al., 2014; cited from earlier work
[1] = molecular target: T1, uPARAP (Homo sapiens, UniProt Q9UBG0)
T1 sequence (Q9UBG0 31-1479): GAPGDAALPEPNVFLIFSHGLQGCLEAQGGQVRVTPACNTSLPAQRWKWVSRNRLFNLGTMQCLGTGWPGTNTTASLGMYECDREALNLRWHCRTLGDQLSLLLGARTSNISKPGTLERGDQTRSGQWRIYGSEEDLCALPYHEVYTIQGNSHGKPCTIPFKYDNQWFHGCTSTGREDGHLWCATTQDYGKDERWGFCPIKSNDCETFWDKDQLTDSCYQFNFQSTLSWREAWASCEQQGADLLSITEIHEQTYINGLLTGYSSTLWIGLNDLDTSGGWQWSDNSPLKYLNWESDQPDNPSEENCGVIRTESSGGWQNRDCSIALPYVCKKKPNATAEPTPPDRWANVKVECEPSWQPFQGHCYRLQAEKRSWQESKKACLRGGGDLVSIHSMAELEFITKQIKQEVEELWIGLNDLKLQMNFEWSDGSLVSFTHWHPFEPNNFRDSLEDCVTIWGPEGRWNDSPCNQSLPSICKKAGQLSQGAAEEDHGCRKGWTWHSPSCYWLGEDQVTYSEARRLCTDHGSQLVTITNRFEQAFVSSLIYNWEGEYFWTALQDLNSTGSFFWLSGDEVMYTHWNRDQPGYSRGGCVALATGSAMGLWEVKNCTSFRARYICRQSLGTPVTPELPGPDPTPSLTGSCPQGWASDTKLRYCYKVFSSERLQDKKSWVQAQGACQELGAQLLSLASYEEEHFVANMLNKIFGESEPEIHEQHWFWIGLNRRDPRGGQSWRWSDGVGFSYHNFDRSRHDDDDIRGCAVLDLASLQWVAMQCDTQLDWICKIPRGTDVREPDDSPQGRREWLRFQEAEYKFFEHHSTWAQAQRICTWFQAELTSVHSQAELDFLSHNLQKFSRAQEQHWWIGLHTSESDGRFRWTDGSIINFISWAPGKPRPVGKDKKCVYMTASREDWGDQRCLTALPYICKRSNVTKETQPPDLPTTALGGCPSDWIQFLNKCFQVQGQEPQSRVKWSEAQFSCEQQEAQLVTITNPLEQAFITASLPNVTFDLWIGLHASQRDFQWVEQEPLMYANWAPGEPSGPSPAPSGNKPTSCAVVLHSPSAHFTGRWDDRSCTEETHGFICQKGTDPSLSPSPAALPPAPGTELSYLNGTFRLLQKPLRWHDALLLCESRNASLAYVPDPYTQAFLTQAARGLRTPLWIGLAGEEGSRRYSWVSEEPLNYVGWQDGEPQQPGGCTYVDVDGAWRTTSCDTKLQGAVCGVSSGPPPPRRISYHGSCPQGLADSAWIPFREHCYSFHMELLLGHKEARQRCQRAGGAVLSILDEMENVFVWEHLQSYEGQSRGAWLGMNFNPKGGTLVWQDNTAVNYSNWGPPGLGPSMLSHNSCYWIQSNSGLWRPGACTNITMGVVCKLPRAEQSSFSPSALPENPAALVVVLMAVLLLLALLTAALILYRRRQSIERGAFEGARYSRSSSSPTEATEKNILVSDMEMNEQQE

[2] = tested on: uPARAP
[3] = tested on: other members of the mannose receptor family

B1: mAb 5f4: mouse monoclonal IgG1K anti-uPARAP antibody, epitope in the FN-II domain (antibody, V domains shown)
VL: DIVMTQSQKFMSTSLGARVSITCKASQNVGSNVVWYQQKLGQSPKALIYSASSRFSGVPDRFTGSGSGTDFTLTISNVQSEDLAEYFCQQYNTYPLAFGAGTKLELK
VH: DVQLQESGPGLVKPSQSLSVTCTVTGYSITNAYYWNWIRHFPGNKLEWLGYIHSSGDTNYNPSLKSRISITRDTSKNQFFLQLNSVTTEDTATYYCARSPYYSNYFPYWGQGTLVTVSA
Binding to wildtype uPARAP [1]: capable of binding
Binding to uPARAP with FN-II domain swapped with that of other family members [2]: not capable of binding
Binding to artificial family members with FN-II domain switched with that of uPARAP [3]: capable of binding
Binding to other mannose receptor family members in wildtype form [3]: not capable of binding
